Test results from the DeepSol protein solubility set.

Assay: soluble on expression in E. coli; label from the status in PepcDB or PDB records

**Q.** For “GMPQTLKPDTPAGTPAAGAVAFRRQVLPQDALLVRRVVESTGFFTPEEADVAQELVDEHLMHGAACGYHFVFATEDDDMAGYACYGPTPATEGTYDLYWIAVAPHRQHSGLGRALLAEVVHDVRLTGGRLLFAETSGIRKYAPTRRFYERAGFSAEAVLKAFYRAGDDKIIYRLEVA”, which “soluble on expression in E. coli” value is on record?
**A.** soluble

**Q.** With “GMSEAPHLTFDLDTPGVSTGHLVVPKGADCEALSLPVFSCNRGEGPSLLITGGNHGNELQGPILARRLVKWLPEAQRCGRIIIVPEINPLAVQAWTRNTPIDGKNLNRVFPGRSDGSVSERIADAISRLLLPVVDTVLDLHSFGPTWDCAPSIISHPIADIDQMTKTVSISKAFKLPVTLLWEHNETDGMFDTLVHRQGKTFICTEFGGGVVSAEALTIYEAGVRNGLIALGLVKGKAEYPTFRQQKTGQTLETTSSDQLKSPSPGIFEPRCSVMDEVEQGDVVGVLHPMGSLSAASIDIRAQSKSTVFAIRSAMYVQGNEEVAILARPLAR” as the sequence, how does the “soluble on expression in E. coli” value read?
**A.** soluble

**Q.** Which “soluble on expression in E. coli” value does the source give for “GMSRSPFQTFVWRSEIFECQSTDIQRFYSLLAIETERLGLGSKILGQAGHHPLYLLQSPGQKAGLPNLLISAGFHGEESAGPWGLLHFLSQLDGELFKRVNLSVLPLVNPTGFAKGHRFNELGENPNRGFFIENGKAKPGADTSAEGRILLEHAHLLQVASRDGILTCHEDVLMTDTYVYTFEPSQAPGRFSHSLRDALGQYFPIAADGDVDNCPVRSGVIFNHFDTSFESFLVRSGARVGCCSETPGQQPLDQRILANAAAMNTFVNMLAPELS” here?
**A.** soluble

**Q.** With “GMSTAAESEIRQLIERWMQAVRDRDIPGIIAPYADDIVAFDAIQALQFKGKSAYTAHWEMCMGMCTGPMVFELAQLTVHAAGDLALAHWLNRCGPGDDESQCGFMRATVGYRRQGGQWQVIHEHWSAPFDMETQKALFDLKP” as the sequence, how does the “soluble on expression in E. coli” value read?
**A.** soluble

**Q.** Which “soluble on expression in E. coli” value does the source give for “GMTESDRDQEASMREVVIVKSTPQRGKFNAFAELVGKLVSETRDFPGCLGAYLMLAPERNEQVVMHIWETPDALEAYLTWRADRGDFLEINEYLEVEQDFKTYQLA” here?
**A.** soluble

**Q.** Which “soluble on expression in E. coli” value does the source give for “GMTNHNNSGKKKVAILIEQAVEDTEFIIPCNGLKQAGFEVVVLGSRMNEKYKGKRGRLSTQADGTTTEAIASEFDAVVIPGGMAPDKMRRNPNTVRFVQEAMEQGKLVAAVCHGPQVLIEGDLLRGKQATGFIAISKDMMNAGADYLDEALVVDGNLITSREPGDLAIFTTAILSRLGYGGKDAALPDEKDRNAEWWKLADAWGGSTKGDIVRGLNTALGGERYSLEALEKYTEKESDVEAKALFQEMITNKQRHIEYLETYLTRLGEKPSLSANIANQYAKVKTALTGSDDIYQIRSALGDIQTGIGDIGNLCAMYTDPIATAIFKEIYKDLVKYEQRLVSLYRTRTNATVQPPKPTTGAAVSM” here?
**A.** soluble

**Q.** With “GMTRRIAICAPSTPFTREDSARVIALAAAEFPDLSLSFHEQCFASEGHFAGSDALRLSAFLECANDDAFEAVWFVRGGYGANRIAEDALARLGRAASAKQYLGYSDAGTLLAALYAHRIGRSVHAPMPVDIRRPEGESAVRRTLGWLAGAREGLEPTLGAGAPAVAFNLMTLAMLCGTRLLPDLSGHVVMIEEVAEHHYAVDRLLFHVTSCLADAGIAGLRLGRVSDVPENDRPFGCSVEEMARHWCHRAGIAFLGTADIGHDVDNRIVPFGLA” as the sequence, how does the “soluble on expression in E. coli” value read?
**A.** soluble

**Q.** Which “soluble on expression in E. coli” value does the source give for “GNFYAVRKGRETGIYNTWNECKNQVDGYGGAIYKKFNSYEQAKSFLG” here?
**A.** soluble

**Q.** With “GNYHVTLQASYIAKNVEDVEDAIGVAISQIGKLLNKGSLDYVDIDVGLTICPKCGEPIDCVLVVAKTAIVGILLSMKVFNAESPEHAVRIAKSSIGRALKDIP” as the sequence, how does the “soluble on expression in E. coli” value read?
**A.** not soluble

**Q.** Which “soluble on expression in E. coli” value does the source give for “GPDSEMCKDYRVLPRIGYLCPKDLKPVCGDDGQTYNNPCMLCHENLIRQTNTHIRSTGKCEESSTPGTTAASMPPSDE” here?
**A.** soluble

**Q.** For “GPGSEHLTTVAAPFTCPIRRTVFAEGRRTIIFFRNIDATTAVFHQLRSAGFAVSLLHASLPYKVRKEMYADFASGRTNILCATDVAARGLDLHVDMVINFDVPTNALAYLSRSGRTARMGREGQVLNLYNKHQGVIVSAIKAFLKDNLPMEGLTNRKADMMQPRYAEWRTHKINALARSYVSLITR”, which “soluble on expression in E. coli” value is on record?
**A.** not soluble

**Q.** For “GPGSMAATTEVTPEHVLQLTAPSTGFLCPITANTYNIEFYSFVVRDADTKQVMFEVERDASTYPSVASLAQLPEEQQQAARTIFYRFPPSMLRKQRVSATLLFGVNGDKPVPDLRMIERHYFRNTLVKTFDFKFGFCIPHSRNTWEAVYDVPQFNAEWLEAIEKGTNEMTSDSFYFADGRLIMHNRAFYDYSAPEEEFTK”, which “soluble on expression in E. coli” value is on record?
**A.** soluble
